Results reported in IntAct's records for PubMed 16720724.

B1: Activin receptor type-1B (Homo sapiens), P36896 (parent)
chain: MAESAGASSFFPLVVLLLAGSGGSGPRGVQALLCACTSCLQANYTCETDGACMVSIFNLDGMEHHVRTCIPKVELVPAGKPFYCLSSEDLRNTHCCYTDYCNRIDLRVPSGHLKEPEHPSMWGPVELVGIIAGPVFLLFLIIIIVFLVINYHQRVYHNRQRLDMEDPSCEMCLSKDKTLQDLVYDLSTSGSGSGLPLFVQRTVARTIVLQEIIGKGRFGEVWRGRWRGGDVAVKIFSSREERSWFREAEIYQTVMLRHENILGFIAADNKDNGTWTQLWLVSDYHEHGSLFDYLNRYTVTIEGMIKLALSAASGLAHLHMEIVGTQGKPGIAHRDLKSKNILVKKNGMCAIADLGLAVRHDAVTDTIDIAPNQRVGTKRYMAPEVLDETINMKHFDSFKCADIYALGLVYWEIARRCNSGGVHEEYQLPYYDLVPSDPSIEEMRKVVCDQKLRPNIPNWWQSYEALRVMGKMMRECWYANGAARLTALRIKKTLSQLSVQEDVKI

Variants of: B1
Conditions: with smad7_human SMAD7, O15105
Chain of smad7_human SMAD7, O15105 (O15105 whole entry): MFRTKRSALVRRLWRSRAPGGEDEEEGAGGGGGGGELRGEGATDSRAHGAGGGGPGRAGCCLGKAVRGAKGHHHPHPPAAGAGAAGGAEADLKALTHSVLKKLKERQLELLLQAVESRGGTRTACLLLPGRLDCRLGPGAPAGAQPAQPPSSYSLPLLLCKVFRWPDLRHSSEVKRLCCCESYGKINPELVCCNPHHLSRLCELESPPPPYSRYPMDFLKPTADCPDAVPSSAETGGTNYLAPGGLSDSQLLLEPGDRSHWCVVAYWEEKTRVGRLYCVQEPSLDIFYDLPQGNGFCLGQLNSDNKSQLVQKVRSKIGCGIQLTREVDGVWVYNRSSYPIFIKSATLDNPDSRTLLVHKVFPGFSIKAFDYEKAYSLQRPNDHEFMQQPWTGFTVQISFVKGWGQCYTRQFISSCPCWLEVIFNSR

Variant | effect of a mutation on the interaction
MAESAGASSFFPLVVLLLAGSGGSGPRGVQALLCACTSCLQANYTCETDGACMVSIFNLDGMEHHVRTCIPKVELVPAGKPFYCLSSEDLRNTHCCYTDYCNRIDLRVPSGHLKEPEHPSMWGPVELVGIIAGPVFLLFLIIIIVFLVINYHQRVYHNRQRLDMEDPSCEMCLSKDKTLQDLVYDLSTSGSGSGLPLFVQRTVAREIVLQEIIGKGRFGEVWRGRWRGGDVAVKIFSSREERSWFREAEIYQTVMLRHENILGFIAADNKDNGTWTQLWLVSDYHEHGSLFDYLNRYTVTIEGMIKLALSAASGLAHLHMEIVGTQGKPGIAHRDLKSKNILVKKNGMCAIADLGLAVRHDAVTDTIDIAPNQRVGTKRYMAPEVLDETINMKHFDSFKCADIYALGLVYWEIARRCNSGGVHEEYQLPYYDLVPSDPSIEEMRKVVCDQKLRPNIPNWWQSYEALRVMGKMMRECWYANGAARLTALRIKKTLSQLSVQEDVKI [T206E] | increasing interaction
